Measured values from patent US20220403022A1 (Merck KGaA, published 2022).
Values joined by “and” are separate entries in the source; they are usually repeats but may differ in a detail not shown here. Equal values may be shown once.

Columns and labels:
human TIGIT ECD Y113A [1] = target: T1, human TIGIT ECD Y113A (human, UniProt Q495A1 22-141); experiment: SPR, antibody captured, mutant TIGIT ECD injected
T1 construct: point mutant expressed in E. coli
T1 chain: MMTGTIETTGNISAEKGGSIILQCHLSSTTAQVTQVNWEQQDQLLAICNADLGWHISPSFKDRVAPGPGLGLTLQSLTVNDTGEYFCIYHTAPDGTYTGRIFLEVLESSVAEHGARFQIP

human TIGIT ECD Q53A [2] = target: T2, human TIGIT ECD Q53A (human, UniProt Q495A1 22-141); experiment: SPR, antibody captured, mutant TIGIT ECD injected
T2 construct: point mutant expressed in E. coli
T2 chain: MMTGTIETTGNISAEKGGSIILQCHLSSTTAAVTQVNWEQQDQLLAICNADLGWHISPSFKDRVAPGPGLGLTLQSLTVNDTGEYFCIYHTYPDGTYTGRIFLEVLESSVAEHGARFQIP

human TIGIT ECD P114G = target: T3, human TIGIT ECD P114G (human, UniProt Q495A1 22-141); experiment: SPR, antibody captured, mutant TIGIT ECD injected
T3 construct: point mutant expressed in E. coli
T3 chain: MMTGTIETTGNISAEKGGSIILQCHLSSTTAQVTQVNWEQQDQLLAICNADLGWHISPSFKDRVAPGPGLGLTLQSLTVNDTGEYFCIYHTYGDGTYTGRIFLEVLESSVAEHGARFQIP

human TIGIT ECD T55A = target: T4, human TIGIT ECD T55A (human, UniProt Q495A1 22-141); experiment: SPR, antibody captured, mutant TIGIT ECD injected
T4 construct: point mutant expressed in E. coli
T4 chain: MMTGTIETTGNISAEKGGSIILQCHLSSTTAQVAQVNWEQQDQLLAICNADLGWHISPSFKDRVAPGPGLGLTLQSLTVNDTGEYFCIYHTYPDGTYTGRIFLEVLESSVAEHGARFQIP

[3] = target: T5, human TIGIT ECD expressed on the CHO-S cell surface (human, UniProt Q495A1 22-141); experiment: flow cytometry blocking assay on CHO-S-hTIGIT cells, competitor muCD112; competitor muCD112; human IgG 3963H03-12
T5 construct: sections 3.13 and 4.1 say only stably expressing human TIGIT; also called CHO-S-hTIGIT; CHO-S-huTIGIT
T5 sequence: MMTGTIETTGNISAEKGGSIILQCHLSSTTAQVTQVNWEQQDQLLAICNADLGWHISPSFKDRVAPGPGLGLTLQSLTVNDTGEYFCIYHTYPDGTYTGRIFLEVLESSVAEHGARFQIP

[4] = target: T5, human TIGIT ECD expressed on the CHO-S …; experiment: flow cytometry blocking assay on CHO-S-hTIGIT cells, competitor muCD155-Fc; competitor muCD155-Fc; human IgG 3963H03-12
human TIGIT ECD Y113A [5] = target: T1, human TIGIT ECD Y113A; experiment: SPR, antibody captured on anti-human Fc, TIGIT ECD injected
human TIGIT ECD Q53A [6] = target: T2, human TIGIT ECD Q53A; experiment: as above
human TIGIT ECD D115A = target: T6, human TIGIT ECD D115A (human, UniProt Q495A1 22-141); experiment: as above
T6 construct: point mutant expressed in E. coli
T6 chain: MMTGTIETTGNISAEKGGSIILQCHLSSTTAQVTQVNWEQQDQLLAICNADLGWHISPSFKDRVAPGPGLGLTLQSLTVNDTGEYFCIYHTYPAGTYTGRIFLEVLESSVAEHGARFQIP

[7] = target: T5, human TIGIT ECD expressed on the CHO-S …; experiment: flow cytometry blocking assay on CHO-S-human TIGIT cells, competitor biotinylated human CD155-Fc 2 µg/mL
[8] = target: T7, human TIGIT on cells (primary T cells, transfected HEK293 cells, Jurkat reporter cells, NK cells) (human, UniProt Q495A1 22-244); experiment: cell-based or functional assay
T7 sequence: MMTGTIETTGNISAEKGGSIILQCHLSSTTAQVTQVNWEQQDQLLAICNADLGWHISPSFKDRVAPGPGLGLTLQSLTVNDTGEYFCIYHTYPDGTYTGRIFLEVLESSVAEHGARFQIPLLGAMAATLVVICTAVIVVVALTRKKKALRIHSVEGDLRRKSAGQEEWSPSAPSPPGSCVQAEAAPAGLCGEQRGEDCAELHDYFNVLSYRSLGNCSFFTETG

[9] = target: T5, human TIGIT ECD expressed on the CHO-S …; experiment: cell-based or functional assay
[10] = target: T5, human TIGIT ECD expressed on the CHO-S …; experiment: flow cytometry blocking assay on CHO-S-human TIGIT cells, competitor biotinylated human CD112-Fc 2 µg/mL
[11] = target: T7, human TIGIT on cells (primary T cells, …); experiment: flow cytometry, live transfected HEK293 cells
[12] = target: T7, human TIGIT on cells (primary T cells, …); experiment: target occupancy on CD3+ T cells in human whole blood, unoccupied TIGIT detected with biotinylated 3963H03-12, flow cytometry, 9 donors
His-tagged human TIGIT = target: T8, His-tagged human TIGIT (human, UniProt Q495A1 22-141); experiment: SPR Biacore, antibody captured on anti-human Fc, His-tagged TIGIT injected
T8 construct: soluble analyte in SPR
T8 sequence: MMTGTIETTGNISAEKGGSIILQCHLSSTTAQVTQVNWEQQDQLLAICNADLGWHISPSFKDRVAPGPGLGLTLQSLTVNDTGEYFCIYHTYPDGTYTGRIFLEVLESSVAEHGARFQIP

[13] = target: T9, His-tagged cynomolgus monkey TIGIT (cynomolgus monkey, UniProt A0A7N9I9V4 89-209); experiment: as above
T9 construct: also called Cyno TIGIT; cynomolgus monkey TIGIT (Novoprotein cat. No. CP02)
T9 sequence (A0A7N9I9V4 entry or part of it): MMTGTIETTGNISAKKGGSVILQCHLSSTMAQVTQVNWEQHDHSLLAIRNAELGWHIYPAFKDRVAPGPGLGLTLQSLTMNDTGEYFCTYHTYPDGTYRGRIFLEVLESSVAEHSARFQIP

[14] = target: T7, human TIGIT on cells (primary T cells, …); experiment: cell-based or functional assay; remark: listed apart in the source

B1: 3963H03-12 (antibody, human IgG1, kappa, V domains shown)
VH: QVQLVQSGSELKKPGASVKVSCKASGYTFTSYPMNWVRQAPGQGLEWMGWINTNTGNPTYAQGFTGRFVFSLDTSVSTAYLQISSLKAEDTAVYYCARVGGYSVDEYAFDVWGQGTLVTVSS
VL: DIQLTQSPSFLSASVGDRVTITCRASQGISSYLAWYQQKPGKAPKLLIYAASTLQSGVPSRFSGSGSGTEFTLTISSLQPEDFATYYCQQLSSYPTFGGGTKVEIKR
notes: also called anti-TIGIT H03-12; 39631H03-12
B1: no binding (tested: 100 nM antigen) (human TIGIT ECD Y113A [1]); no binding (tested: 100 nM antigen) (human TIGIT ECD Q53A [2]); no binding (tested: 100 nM antigen) (human TIGIT ECD P114G). For the same binder, the binding result (human TIGIT ECD T55A) was “no binding (tested: 100 nM antigen)”, the IC50 [3] was 1.68 µg/mL and the IC50 [4] was 0.499 µg/mL. The “ΔΔGmut” value (human TIGIT ECD Y113A [5]) was over 3 kcal/mol, the “ΔΔGmut” value (human TIGIT ECD Q53A [6]) was over 3 kcal/mol and the Kd (human TIGIT ECD D115A) was 14400 pM. For the same binder, the “ΔΔGmut” value (human TIGIT ECD D115A) was 1.14 kcal/mol, the IC50 [7] was 0.165 µg/mL and 1.1 nM and the “EC50” value [8] was 12.5 µg/mL. The “ADCC EC50, nM (Donor 1005-4464)” value [9] was 0.026 nM, the “ADCC EC50, nM (Donor 1102-7215)” value [9] was 0.1 nM and the “ADCC EC50, nM (Donor 1106-0557)” value [9] was 0.059 nM. The IC50 [10] was 0.411 µg/mL and 2.8 nM, the “fold median fluorescence over vector-only transfected HEK293 cells” value [11] was 130 fold and the EC50 [12] was 0.24 µg/mL and 1.6 nM. For the same binder, the Kd (His-tagged human TIGIT) was 4050 pM, the koff (His-tagged human TIGIT) was 0.00067 s⁻¹ and the kon (His-tagged human TIGIT) was 166000 M⁻¹ s⁻¹. For the same binder, the Kd [13] was 829 pM and 830 pM, the koff [13] was 0.000133 s⁻¹ and the kon [13] was 160000 M⁻¹ s⁻¹. For the same binder, the “NK-mediated killing of P815.hCD155 cells (Caspase-3/7 signal)” value [14] was at most 2 fold.
